This assay concerns the target D-galactose receptor (human (endogenous in SHIN3)). Nature of the assay: flow cytometry on cells. On the technique in general: In flow cytometry, cells or beads pass a laser one at a time.

We go through one substance from publication PMC2743556.

For “TAMRA conjugated avidin (from UniProt P02701 25-152) (ligand)”, the mean value of fluorescence (FACS flow cytometry) is 10.9.
